Experiment [1] concerns the target purified human αvβ3 integrin protein (human) (UniProt P06756). The experiment can be described thus: radioligand binding; modified ELISA-type competitive assay: αvβ3 integrin coated on 96-well plate (200 ng/well in PBS with 1 mM MnCl2, 16 h, 4 °C); fractalkine-CD (1000 ng/well in HEPES-Tyrodes buffer) or water added 2 h at room temperature, washed; then 3H-25HC in PBS/0.5% BSA 16 h at 4 °C; bound radioactivity counted. (An ELISA detects its analyte on a solid surface through an enzyme-linked reagent.)

Experiment [2] concerns the target collagen-I (Homo sapiens) (UniProt P02452). The experiment can be described thus: SPR. To be noted: cited from earlier work.
Experiment [3] has as its target vitronectin (Homo sapiens) (UniProt P04004). Put plainly: SPR. As to conditions: cited from earlier work.
The target in experiment [4] is phospholipase A2 (Homo sapiens) (UniProt P14555). Put plainly: SPR. As to conditions: cited from earlier work.
A further experiment addresses IGF1 (Homo sapiens) (UniProt P05019). Put plainly: SPR. To be noted: cited from earlier work.
The next experiment has as its target T1, αvβ3 integrin (Homo sapiens, UniProt P05106+P06756).
T1 construct: gene ITGAV; Purified human αvβ3 integrin protein; with integrin αv subunit (ITGAV)
Put plainly: SPR (Biacore […], immobilized αvβ[…]); also 3H-25HC binding with fractalkine-CD competition and biotin-25HC pull-down. On the technique in general: SPR reads the build-up and loss of mass on a sensor chip optically.

Bounds are passed on as bounds.

This passage reports loss of 3H-25HC binding to immobilised αvβ3 integrin after pre-incubation with fractalkine-CD and Kd results from article PMC6443809, “Integrin activation by the lipid molecule 25-hydroxycholesterol induces a proinflammatory response” (Nature Communications, 2019).

Usually Kd stands for the free concentration of one partner at which half of the binding sites on the other are occupied at equilibrium, for simple one-to-one binding.

Take “purified chemokine domain (CD) of recombinant human fractalkine protein (from UniProt P78423 25-397) (domain or fragment)”: in experiment [1], the loss of 3H-25HC binding to immobilised αvβ3 integrin after pre-incubation with fractalkine-CD was greater than 60%.
On to α1β1 integrin (from UniProt P56199), for which the Kd in experiment [2] was 24 nM.
αvβ3 integrin (from UniProt P06756): the Kd in experiment [3] is 64 nM; in experiment [4], 211 nM; with IGF1 (Homo sapiens) it was 31 nM.
With `C[C@H](CCCC(C)(C)O)[C@H]1CC[C@H]2[C@@H]3CC=C4C[C@@H](O)CC[C@]4(C)[C@H]3CC[C@]12C` [25HC, 25-hydroxycholesterol], binding at αvβ3 integrin was characterised by a dissociation constant (Kd) of 10.9 nM.
